# Test results as given in paper PMC7596504, “Molecular mechanism of the MORC4 ATPase activation” (Nature Communications, 2020).
# T1: MORC4 (Homo sapiens, UniProt Q8TE76)
# T1 construct: the ATPaseCW cassette (aa 29–486) of human MORC4 (Q8TE76); GST (cleaved yes); made in house; host or cells: E. coli Rosetta2 (DE3) pLysS or BL21 (DE3) RIL
# T1 sequence (Q8TE76 1-937): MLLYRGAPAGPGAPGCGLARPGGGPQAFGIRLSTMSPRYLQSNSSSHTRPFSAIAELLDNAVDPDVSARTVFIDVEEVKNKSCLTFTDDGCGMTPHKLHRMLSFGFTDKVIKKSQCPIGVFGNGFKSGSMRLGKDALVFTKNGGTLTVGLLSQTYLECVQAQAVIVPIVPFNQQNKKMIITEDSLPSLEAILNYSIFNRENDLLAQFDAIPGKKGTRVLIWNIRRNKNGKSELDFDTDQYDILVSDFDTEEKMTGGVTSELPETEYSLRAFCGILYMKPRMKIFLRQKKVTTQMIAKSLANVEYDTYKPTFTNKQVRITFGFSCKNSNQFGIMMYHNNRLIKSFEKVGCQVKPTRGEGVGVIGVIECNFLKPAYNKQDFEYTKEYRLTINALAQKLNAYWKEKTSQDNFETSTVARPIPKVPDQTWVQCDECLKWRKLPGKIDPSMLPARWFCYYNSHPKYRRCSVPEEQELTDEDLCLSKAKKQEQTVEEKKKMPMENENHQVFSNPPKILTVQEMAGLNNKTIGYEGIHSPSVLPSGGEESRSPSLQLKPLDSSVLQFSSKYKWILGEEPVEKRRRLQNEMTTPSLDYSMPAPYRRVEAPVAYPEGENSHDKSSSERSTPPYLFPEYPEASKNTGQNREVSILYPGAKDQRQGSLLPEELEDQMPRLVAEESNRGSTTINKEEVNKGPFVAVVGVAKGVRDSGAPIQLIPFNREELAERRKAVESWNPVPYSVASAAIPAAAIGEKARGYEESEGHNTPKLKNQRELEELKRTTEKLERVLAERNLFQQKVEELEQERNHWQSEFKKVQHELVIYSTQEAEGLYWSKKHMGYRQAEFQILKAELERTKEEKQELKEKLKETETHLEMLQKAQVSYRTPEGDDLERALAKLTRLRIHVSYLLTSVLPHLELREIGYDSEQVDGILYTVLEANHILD
# Assays:
# MORC4 [1] = target: T1, MORC4; test: ATPase activity assay (EnzChek Phosphate Assay Kit); format: biochemical; set-up: Rate of ATP hydrolysis: unit not given here; conditions: Supp. Fig. 1
# Experimental: (§1) To determine whether MORC4 is catalytically active, we produced the ATPase domain of human MORC4 and examined its ability to hydrolyze ATP in enzymatic assays (Fig. 1a–c). Following incubation of the ATPase domain with ATP, 2-amino-6-mercapto-7-methylpurine ribonucleoside and nucleoside phosphorylase, the release of inorganic phosphate generated by the hydrolysis of ATP to ADP was monitored by measuring an increase in absorbance at 360 nm.
# (§2) The ATPase assays were performed using the EnzChek Phosphate Assay Kit (Invitrogen, item # E6646). The reactions were carried out on 1.0 µM of MORC4 His-ATPase or ATPaseCW (WT and mutants), in the presence and absence of 1 µM 601 DNA or 50 µM of unmodified H3 or H3K4me3 peptide (aa 1–12 of H3) in a buffer containing 50 mM Tris-HCl (pH 7.5), 150 mM NaCl, 1 mM MgCl2, 0.1 mM sodium azide, 200 µM MESG, and 1 U of PNP. In assay with the nucleosome, 0.5 µM of MORC4 ATPaseCW and 0.5 µM NCP167 (Activemotif) were used. The reaction was started by adding 2 mM ATP to the mixture at room temperature, and the release of inorganic phosphate was monitored by measuring the absorbance at 360 nm on a Nanodrop 2000c spectrophotometer (Thermo Scientific). In the presence of inorganic phosphate, produced by the hydrolysis of ATP to ADP, MESG is enzymatically converted to ribose 1-phosphate and […] by PNP, resulting in a shift in the wavelength absorbance from 330 nm for MESG to 360 nm for the product. The rate of ATP self-hydrolysis was measured in parallel. Error was calculated as the S.D. of at least three separate experiments (two in Fig. 4j).
# MORC4 [2] = test: as above; format: biochemical, human; set-up: Rate of ATP hydrolysis: unit not given here
# Experimental: as §1, §2
molecule,measurement,setting,value
"ATPaseCW: ATPaseCW cassette (aa 29–486) of human MORC4 (Q8TE76) (protein, left off: GST, end not stated, cleaved) GIRLSTMSPRYLQSNSSSHTRPFSAIAELLDNAVDPDVSARTVFIDVEEVKNKSCLTFTDDGCGMTPHKLHRMLSFGFTDKVIKKSQCPIGVFGNGFKSGSMRLGKDALVFTKNGGTLTVGLLSQTYLECVQAQAVIVPIVPFNQQNKKMIITEDSLPSLEAILNYSIFNRENDLLAQFDAIPGKKGTRVLIWNIRRNKNGKSELDFDTDQYDILVSDFDTEEKMTGGVTSELPETEYSLRAFCGILYMKPRMKIFLRQKKVTTQMIAKSLANVEYDTYKPTFTNKQVRITFGFSCKNSNQFGIMMYHNNRLIKSFEKVGCQVKPTRGEGVGVIGVIECNFLKPAYNKQDFEYTKEYRLTINALAQKLNAYWKEKTSQDNFETSTVARPIPKVPDQTWVQCDECLKWRKLPGKIDPSMLPARWFCYYNSHPKYRRCSVPEEQELTDEDLCLSKAKKQE",Rate of ATP hydrolysis,"MORC4 [1]; 0.5 µM MORC4 ATPaseCW + 0.5 µM NCP167, mean of 3",0.468
same,Rate of ATP hydrolysis,"MORC4 [1]; 0.5 µM MORC4 ATPaseCW + 0.5 µM NCP167, replicate 1",0.5696
same,Rate of ATP hydrolysis,"MORC4 [1]; 0.5 µM MORC4 ATPaseCW + 0.5 µM NCP167, replicate 2",0.408
same,Rate of ATP hydrolysis,"MORC4 [1]; 0.5 µM MORC4 ATPaseCW + 0.5 µM NCP167, replicate 3",0.4265
same,Rate of ATP hydrolysis,"MORC4 [1]; 0.5 µM MORC4 ATPaseCW, without NCP167, mean of 3",0.2339
same,Rate of ATP hydrolysis,"MORC4 [1]; 0.5 µM MORC4 ATPaseCW, without NCP167, replicate 1",0.309
same,Rate of ATP hydrolysis,"MORC4 [1]; 0.5 µM MORC4 ATPaseCW, without NCP167, replicate 2",0.1285
same,Rate of ATP hydrolysis,"MORC4 [1]; 0.5 µM MORC4 ATPaseCW, without NCP167, replicate 3",0.2641
same,Rate of ATP hydrolysis,"MORC4 [2]; + H3K4me3 + 601 DNA, Fig. 1c, mean of 3",0.3353
same,Rate of ATP hydrolysis,"MORC4 [2]; + H3K4me3 + 601 DNA, Fig. 1c, replicate 1",0.3507
same,Rate of ATP hydrolysis,"MORC4 [2]; + H3K4me3 + 601 DNA, Fig. 1c, replicate 2",0.3597
same,Rate of ATP hydrolysis,"MORC4 [2]; + H3K4me3 + 601 DNA, Fig. 1c, replicate 3",0.2954
same,Rate of ATP hydrolysis,"MORC4 [2]; + H3un + 601 DNA, Fig. 1c, mean of 3",0.3154
same,Rate of ATP hydrolysis,"MORC4 [2]; + H3un + 601 DNA, Fig. 1c, replicate 1",0.2842
same,Rate of ATP hydrolysis,"MORC4 [2]; + H3un + 601 DNA, Fig. 1c, replicate 2",0.3368
same,Rate of ATP hydrolysis,"MORC4 [2]; + H3un + 601 DNA, Fig. 1c, replicate 3",0.3251
same,Rate of ATP hydrolysis,"MORC4 [2]; no DNA, no peptide, 1.0 µM protein, 2 mM ATP, pH 7.5, room temperature, absorbance 360 nm, Fig. 1b,c, mean",0.09309
same,Rate of ATP hydrolysis,"MORC4 [2]; no DNA, no peptide, Fig. 1b,c, replicate 1",0.08409
same,Rate of ATP hydrolysis,"MORC4 [2]; no DNA, no peptide, Fig. 1b,c, replicate 2",0.08589
same,Rate of ATP hydrolysis,"MORC4 [2]; no DNA, no peptide, Fig. 1b,c, replicate 3",0.1093
